Values quoted from earlier work as cited in paper PMC8295177 (Cancer discovery, 2021).
Like-named read-outs stand apart in the source and are kept apart here.

System: NSCLC with EGFRex20ins mutations
Details: cited from earlier work
[1] = 39 response-evaluable patients with advanced NSCLC and EGFRex20ins mutations, phase 1

B1: amivantamab: an intravenous bispecific antibody that targets EGFR and MET (antibody, chains of the INN, looked up, V domains shown)
VH: QVQLVESGGGVVQPGRSLRLSCAASGFTFSTYGMHWVRQAPGKGLEWVAVIWDDGSYKYYGDSVKGRFTISRDNSKNTLYLQMNSLRAEDTAVYYCARDGITMVRGVMKDYFDYWGQGTLVTVSS
VL: AIQLTQSPSSLSASVGDRVTITCRASQDISSALVWYQQKPGKAPKLLIYDASSLESGVPSRFSGSESGTDFTLTISSLQPEDFATYYCQQFNSYPLTFGGGTKVEIK
VH2: QVQLVQSGAEVKKPGASVKVSCETSGYTFTSYGISWVRQAPGHGLEWMGWISAYNGYTNYAQKLQGRVTMTTDTSTSTAYMELRSLRSDDTAVYYCARDLRGTNYFDYWGQGTLVTVSS
VL2: DIQMTQSPSSVSASVGDRVTITCRASQGISNWLAWFQHKPGKAPKLLIYAASSLLSGVPSRFSGSGSGTDFTLTISSLQPEDFATYYCQQANSFPITFGQGTRLEIK
**Q.** For B1, which “investigator-assessed response rate (ORR)” value [1] is on record?
**A.** 36%

**Q.** What about the “median PFS” value [1] of the same molecule?
**A.** 8.3 months

**Q.** And the “median PFS” value (patients with NSCLC with EGFRex20ins and other EGFR mutations)?
**A.** 8.3
